Assay results reported in the nanobody polyreactivity screen of Harvey et al. (2022).

Assay: yeast display, Sf9 membrane polyspecificity reagent, FACS + sequencing; frameworks hold sequencing errors
Procedure, shortened: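 In a synthetic yeast display library (Saccharomyces cerevisiae BJ5465), nanobody expression was induced with galactose for 36–48 hours. FACS gates were set low and high (top ~1%) using anti-HA fluorescence for expression and streptavidin fluorescence for binding of the Sf9 membrane reagent. Each polyreactivity label is drawn from the gate of origin.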

Sequence | polyreactivity (PSR sort gate)
QVQLVESGGGLVQAGVSLRLSCAASGLIFGQNAMGWYRQAPAKERELVAAISQRGGTYYADSVKGRFTISRDNSKNTVYLQMNSLKPEDTAVYYCAARVGLQPGRYYLRYDYWGQGTQVTVSS | low polyreactivity
QVQLVESGGGLVQAGGSLRLSSAASGRIFARYAMGWYIQAPGKERELVAAITVSGDNTYYADSVKGRFTISRDNAKNTVYLQMNSRKPEDSADYYCDVRAVLLFGFFEYDYWGHGTQVTVSS | low polyreactivity
QVQLVESGGGLVQAGGSLRLSCAASGSTLGRYAMGWYIQAPGKERELVAAISRGGGSTYYADSVKGRFTISRDNAKNTVYLQMNSLKPEDTAVYYCAARQYIGSPPHRRRFDYWGQGTQVTVSS | high polyreactivity
QVQLVESGGGLVQAGGSLRLSCAASGRTFRYKAMGWYRQAPGKERELVAAITYSGGITYYADSVKGRFTISRDNAKNTVYLQMNSLKPEDTAVYYCAADDPYRTTYEYDYWGQGTQVTVSS | low polyreactivity
QDQLVESGGGLVQAGGSLRLSCAASGSTFKRYAMGWYSQAPGKVRELVAAISRRGGSTYYADSVKGRFTISRDNAKNTVYLQMNSLKPEDTAVYYCAARIASHHYYYWGQGTQVTVSS | high polyreactivity
QVHLVESGGGLVHAGGSLRLSCAASGSTFSYYTMGWYRQAPGKERELVAAITRRGDSTYADSVKGRFTISRDNAKNTVYLQMNSLKPEDTAVYYCAADASVGVSGMDYWGQGTQVTVSS | low polyreactivity
QVQLVESGGGLVQAGGSLRLSCAASGYTFDYNAMGWYRQAPGKEREFVATITASGDSTYYADSVKGRFTISRDNAKNTVYLQMNSLKPEDTAVYYCATEKRDVYFTAKYDYWGQGTQVTVSS | low polyreactivity
QVQLVESVGGLVQAGGSLRLSCDATGNTFRIYAMGWYIHAPGKERQLVAAISQSGGSTYYADSVKGRFTISRDNAKNTVYLQMHSLKPEDTAVYYCNRRFAPFWGRDGYWGQGTQVTVSS | high polyreactivity
QVQLVESGGGLVQAGGSLRLICAASGRTFGYYTMGWYRPAPGKERELVARINYIGSSTYYADSVKGRFTISRDNAKNTVYLQMNSLKPEDTAVYYCNADNARGRSGVRRYYWGQGTQVTVSS | high polyreactivity
QVQLVESGGGLVQAGGSLRLSCAASGFIFTDNAMGWYRQAPGKERELVAAISKNGGSTYYADSVKGRFTISRDNAKNTVYLQMNSLKPEDTAVYYCNTRRKNFDKSSQVEYWGQGTQVTVSS | high polyreactivity
QVQLVESGGGLVQAGGSLRLSCAASGLIFWKYARGWYRQAPGKERELVAAIRKSVGSTYYADSVKGRFTISRDNAKNTVYLQMNSLKPEDTAVYYCAAVNAGVGSPVKRDYWGQGTQVTVSS | high polyreactivity
QVQHVESAGGLVQAGGSLRLSCAASARTFRYYAMGWYRQSPGKERELVAAINYSGGRTYYADSVKGRFTISRDNAKITVYLQMNSLNPEDTAVYYCNAVLGSYLPKFDYWGQGTQVTVSS | high polyreactivity
QVRLVESGGGLVQAGGSLRLSCADSGSTLDINAMGWYTQAPGKERELVASISWTGGHTYYADSVKGRFTISRDNAKNTVYLQMNSLKPEDTAVYYCAATHQETVYYFLSIFDDWGQGTQVTLSS | low polyreactivity
QVQLVESGGGLVQAGGSLRLSCAASGRIFRGYAMGWYRQAPGKEREFVDAITKNGGSTYYADSVKGRFTISRDNAKNTVYLQMNSLKPEDTAVYYCAVRAWDPYTGKSEYWGQGTQVTVSS | low polyreactivity
QVQLVESGGGLVQAGGSLRLRCAASGSTILYYAMGWYRQAPGKERELVADIDWSGDSTYYADSVKRRFRISRDNAKNTVYFQMNSLKPEDTAVYYCAATQYYPVPYDYWGQGTQVTVSS | low polyreactivity
QVQLVESGGGLVQAGGSLRLSCAASGFTFYVYAMGWYRQAPGKEREFVAAISSSGGSTYYADSVKGRFTISRDNAKNTVYLQMNSLKPEDTAVYYSAALAYSTTRGRLDYWGQGTQVTVSS | high polyreactivity
QVQLVESGGGLVQAGGSLRLSCAASGRIFDPYAMGWYRQAPGKERELVASISWSGGRTYYADSVKGRFTISRDNAKNTVYLQMNSLKPEDTAVYYCARDYGQYGWYRYGRTYDHWGQGTQVTVSS | high polyreactivity
QDQLVESGGGLVQAGGSLRLSCAASGRTFYRNAMGWYRQAPGKERELVAAISGSGVRTYYADSVKGRFTISRDNAKNTVYLHMNSLKPEDTAVYYCARSVTWFRGRFSPDYGSWGQGTQVTVSS | high polyreactivity
QVQLVESGGGLVQAGGSLRLSCAASGSTFIDNTMGWYRQAPGKERELVASIRRSGGSTYYADSVKGRFTISRDNAKNTVYLQMNSLKPEDTAVYYCDVATRYHTTFWYYYWGQGTQVTVSS | high polyreactivity
QVQLVESGGGLVQAGGSLRLSCAASGLTFYYYAMGWYRQAPGKERELVAAISGTGGSAYYADSVKGRFTISRDNAKNTVYLQMNSLKPEDTAVYYCAARYLRYKGTGATSAYDYWGQGTQVTVSS | high polyreactivity
QVQLVETGGGLVQAGGSLRLSCAASGITFAYNTMGWYIQAPGKERELVAGISFSGASTYYADSVKGRFTISRDYAKNTVYLQMNSLKPEDTAVYDCAAPRWVANQYREYDYWGQGTQVTVSS | high polyreactivity
QVQLVESGGVIVQAGGSLRLSCAATGSNFWSYAMGSSRPAPGKERELVASITRSGGSTYYADSVKGRFTISRDNAKNTVYSQMNSLKPEDTAVYYCNARRTTRWGSSKYEYDYWGQGTQVTVSS | high polyreactivity

Sequence | polyreactivity (PSR sort gate)
QVQLVESGGGLVQAGGSLRLSCAASGITFSRNAMGWYRQAPGKERELVAAINWTGGNTYYADSVKGRFTISRDNAKNTVYLQMNSLKPEDTAVYYCAADRRWFVWGLGYWGQGTQVTVSS | low polyreactivity
QVQLVESGGGLVQAGGSLRLSCAASGFIIPDYAMGWYRQAPVKERELVAAITSSGGRTYYADSVKVRFTISRDNAKNTVYLQMNSLIPEDTAVYYCAARTNSPRGYGSDYWGQGTQVTVSS | high polyreactivity
QVQLVESGGGLVQAGGSLRLSCAASGRIFYYNTMGWYRQAPGKERELVAAITRSGGSTYYADSVKGRFTISRDNAKNTVYLQMNSLKPEDTAVYYCAAQRRYDTADHGYWGQGTQVTVSS | high polyreactivity
QVQLVESGGGLVQAGGSLRLSCDASGGIFYGYAMGWYRQAPGKERELVAAISDSGGSTYYSDSVKGRFTITRDNAKNNVYLQMNSLKPEDTAVYYCATDAPVGGYVSEGDYWGQGTQVTVSS | low polyreactivity
QDQLVESGGGLVQAGGSLRLSCAASGRTFRRYAMGWYRQAPGKERELVAAISASGGSTYYADSVKGRFTISRDNAKNTVYLQMNSLKPEDTAVYYCYALHRAGLFGHYPYESWGQGTQVTVSS | high polyreactivity
QVQLLESGGGLVQAGGSLRLSCAASGSPFYYYARGWYRQAPGKERELVARITYGGSRTYYADSVKGRFTISRDNAKYTVYLQMNSLKPEDTAVYYCNAGRVLYGYYLYDYWGQGTQLTVSS | high polyreactivity
QVQLVESGGGLVQAGGSLRLSCAASGGTFYRYAMGWYRQAPGKERELVAAITDSGGSTYYADSVKGRFTISRDNAKNTVYLQMNSLKPEDTAVYYCAAEDIDYTDVTSGYEYWGQGTQVTVSS | high polyreactivity
QVQLVESGGGLVQAGGSLRLSCAASGRTFDGYVMGWYRQAPGKERELVAAISWGGSSTYYADSVKGRFTISRDNAKNTVYLQMNSLKPEDTAVYYCAKDTVPYERDYWGQGTQVTVSS | low polyreactivity
QVQLVESVGGLVQAGGSLRLSCAASGFNFDYYTMGWYRQAPGKEREFVAAINRRGDITYYADSVKGRFTISRDNAKNTVYLQMNSLKPEDTAVYYCAANLTCSSRYEYGYWGQGTQVTVSS | low polyreactivity
QVQLVESGGGLVQAGCSLRLSCAASGRILFGYAMGWYRQAPGKERELVAAITGSGDSTYYADSVKGRFTISRDNAKNAVYLQLYSLKPEDTAVYYCATEEVYGQGNYWGHGTQVTVSS | low polyreactivity
QVQLVESGGGLVQAGGSLRLSCDASGSIFYDYAMGWYRQAPGKERELVAAITSDTTTNYADSVKGRFTISRDNAKNTVYLQMNSLKPEDTAVYYCNTPPQWLGRYITLTFDYWGQGTQVTVSS | low polyreactivity
QVQLVESGGGLVQAGGSLRLSCAASGSIFLWYAMGWSRQAPGKERELVAALTYSGGTTYYADSVKGRFTISRDNAKNTVYLQLNSLKPEDTAVYYCAKRTAVWTSGGYRKRDYWGQGTQVTVSS | high polyreactivity
QVQLVESGGGLVQAGGSLRLSCAASGSTFRGNAMGWYRQAPGKERELVATISRSNGGSTYYADSVKGRFTISRDIAKNTVYLQMNSLKPEDTEVYYCAARSYIGISTYGYWGLGTQVTVSS | low polyreactivity
QVQLVESGGGLVQAGGSLRLSCAASGLIFRPYAMGWYRQAPGKEREFVAAITWSTGSTYYADSVKGRFTISRDYAKNTVYLQMNSLKPEDTAVYYCAARYTVWRRDYNYWGQGTQVTVSS | high polyreactivity
QVQLVESGGCLVQAGGSIRLSCAAYGSNFDNAMGWSRPATGKERELGAAITSGGITNYADSVKGRFTISRDNAKNTVYLQMNSLKPEDTAVYYCNTLSPTQTKFDYWGQGTQVTVTS | low polyreactivity
QVQLVESGGGLVQAGGSLRLSCAASGSIFYKYMGWYRQAPGKERELVAAMTWSGGSTYYADSVKGRFTISRDNAKNTVYLQMNSLKPEDTAVYYCNADDRHSRVGHSWQDAQFDYWGQGTQVTVSS | high polyreactivity
QVQLVESGGGLVQAGGSLRLSCAASGRIFDTNVMGWYRQAPGKERELVAALSYSGGSTYYADSVKGRFTISRDNAKNTVYLQMNSLKPEDTAVYYCAAQYWQGDYDYRGQGTQVTVSS | high polyreactivity
QVQLVESGGGLVQAGGSLRLSCAASGSIFSDNAMGWYRQAPGKERDLVAAISWIGDSTDYADSVKGRFTISRDNAKNTVYLQMNSLKPEDTAVYYCAADAKVVSPRYRANDIGMFYWGQGTQVTVSS | low polyreactivity
QVQLVESRGGLVQAGRSLRLSCAASGITFYSYAMGWYRQEPGKERELVAAITLTGGTTYYADSVKGRFTISRDNAKNTVYLQMNSLKPEDTAVYYCAAQYWWWSRFEYDSCGQGTQVTVSS | low polyreactivity
QVQLVESGGGLVQAGGSLRLSCAASGFTFPYYAMGWYRQAPGKERELVATISNGGNTYYADSVKGRFTISRDNAKNTVYLQMNSLKPEDTAVYYCNAVVWAWMGYWGQGTQVTVSS | high polyreactivity
QVQLVESGGGLVQGGGSLRLSCAASGRIFLRNAMGSYRQAPGKERELVATITSRGCSTYYADSVKGRFTISRDNAKNTVYLQMNSLKPEDTAVYYCAAYPEYVSGAWYDYWGQGTQVNVSS | low polyreactivity
